Source: PMC6404747

Biological target: Smurf (UniProt Q9V853)
Assay: co-IP Myc-Smo / Fg-Smurf
Details: reference: wild-type Myc-Smo plus Hh; sites S667,S687,S740

For “Smoothened (Smo) (from UniProt P91682) Myc-SmoSA plus Hh”, the “binding against the reference” value was “stronger”.
